Experimental data reported in patent US20230041661A1 (Bicycle, published 2023).
Numbered stars: 1 amine (or outer) side, 2 acyl side, 3 side chain; on linkers, the order of the positions; unused ones are H or OH. Bridge positions count the residues as written; N and C are the ends. Ends that are not written are not given here. TAST = 1,4,7-tris(vinylsulfonyl)-1,4,7-triazonane scaffold, O=S(=O)(CC[*:1])N1CCN(S(=O)(=O)CC[*:2])CCN(S(=O)(=O)CC[*:3])CC1

Molecular target: T1, Human IL-17A (human, UniProt Q16552 24-155)
T1 construct: also called Interleukin-17; CTLA-8
T1 sequence (looked up): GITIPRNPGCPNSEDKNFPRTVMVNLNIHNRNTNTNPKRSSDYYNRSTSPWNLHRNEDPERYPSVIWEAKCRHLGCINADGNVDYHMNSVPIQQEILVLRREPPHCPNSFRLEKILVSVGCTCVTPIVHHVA
Assay: fluorescence polarisation competition, 75 nM human IL-17A, 1 nM tracer BCY13196 as competitor, mean of n=3, Cheng Prusoff fit
Protocol: Affinity determination by fluorescence polarization (FP) competition. Bicycles were screened to determine affinity (Ki) in a fluorescence polarisation assay where in competition with a bicycle labelled with fluorescein (referred to as tracer) with a known affinity for IL-17A. Peptides were diluted to an appropriate concentration in assay buffer (PBS+0.01% Tween20, adjusted to pH7.4 using NaOH (1M)) with a maximum of 1% DMSO, then serially diluted 1 in 2 into assay buffer. Into black 384-well low volume plates, […] of diluted peptide was added to the plate followed by […] of IL-17A at a fixed concentration (75 nM IL-17A for tracer BCY13196, 50 nM IL-17A for tracer BCY13351), then […] tracer added to a final concentration of 1 nM. Measurements were conducted on a BMG PHERAstar FS equipped with an “FP 485 520 520” optic module which excites at 485 nm and detects parallel and perpendicular emission at 520 nm. The PHERAstar FS was set at 25° C. with 200 flashes per well and a positioning delay of 0.1 second, with each well measured at 5 to 10 minute intervals for 60 minutes. The gain used for measurements was determined at the point of experiment on a tracer alone well. […]
Selected peptide ligands of the invention were tested in the above mentioned IL-17A human fluorescence polarization (FP) competition assay and the results are shown in Table 1: […]

B1: BCY13059 (peptide)
peptide: ACPQDLELCTFLFGDCA
modifications: linker 2-9-16 via TAST
notes: Synthetic bicyclic peptide cyclised on TAST
Ki: 313 nM
